Target: VCAP-102 capsid (adeno-associated virus 9) (UniProt Q6JC40)
Experiment: SPR

B1: His-tagged human ALPL (recombinant) (receptor)
chain: LVPEKEKDPKYWRDQAQETLKYALELQKLNTNVAKNVIMFLGDGMGVSTVTAARILKGQLHHNPGEETRLEMDKFPFVALSKTYNTNAQVPDSAGTATAYLCGVKANEGTVGVSAATERSRCNTTQGNEVTSILRWAKDAGKSVGIVTTTRVNHATPSAAYAHSADRDWYSDNEMPPEALSQGCKDIAYQLMHNIRDIDVIMGGGRKYMYPKNKTDVEYESDEKARGTRLDGLDLVDTWKSFKPRYKHSHFIWNRTELLTLDPHNVDYLLGLFEPGDMQYELNRNNVTDPSLSEMVVVAIQILRKNPKGFFLLVEGGRIDHGHHEGKAKQALHEAVEMDRAIGQAGSLTSSEDTLTVVTADHSHVFTFGGYTPRGNSIFGLAPMLSDTDKKPFTAILYGNGPGYKVVGGERENVSMVDYAHNNYQAQSAVPLRHETHGGEDVAVFSKGPMAHLLHGVHEQNYVPHVMAYAACIGANLGHCAPAS
Which Kd does the source give for B1 here?
The Kd was 20 nM.

Reference: doi:10.1101/2024.03.12.584703
